Assay results as given in patent US11946041B2, “Modification of polypeptides” (BicycleRD Limited, priority 2017, dated 2024).

Tests used:
CCR4 [1] = molecular target: T1, CCR4 (Homo sapiens, UniProt P51679); assay: PathHunter eXpress CCR4 CHO-K1 β-Arrestin GPCR Assay, agonist format; type: cell-based
T1 construct: host or cells: CHO-K1
T1 sequence (P51679 1-360): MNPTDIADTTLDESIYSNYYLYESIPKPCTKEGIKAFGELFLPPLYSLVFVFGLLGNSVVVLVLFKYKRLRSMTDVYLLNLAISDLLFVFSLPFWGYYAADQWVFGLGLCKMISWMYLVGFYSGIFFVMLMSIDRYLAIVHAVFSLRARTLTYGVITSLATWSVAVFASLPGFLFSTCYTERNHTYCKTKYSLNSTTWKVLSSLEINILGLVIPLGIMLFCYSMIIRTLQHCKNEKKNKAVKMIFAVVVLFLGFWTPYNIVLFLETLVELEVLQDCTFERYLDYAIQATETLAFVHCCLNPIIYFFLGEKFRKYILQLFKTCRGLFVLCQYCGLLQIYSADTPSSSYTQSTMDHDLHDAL
Experimental: (§1) The aim of the present experiment was to analyze if if these peptides are functional using a Discoverx Assay, the Beta-Arrestin recruitment assay, to identify agonism or antagonism in the selected peptides.
(§2) Standard protocols used: • PathHunter® eXpress CCR4 CHO-K1 β-Arrestin GPCR Assay. 100 dp (1×96-well)
(§3) The experiment was carried using the manufacturer instructions.
The concentration was increased to test for response at high concentration.

CCR4 [2] = molecular target: T1, CCR4; assay: PathHunter eXpress CCR4 CHO-K1 β-Arrestin GPCR Assay, antagonist format with CCL22; type: cell-based
Experimental: as §1, §2, §3
We therefore used the assay in an antagonist format, using 10 nM CCL22.
We repeated this experiment lowering the concentration of CCL22 from 10 nM to 1 nM to show a full inhibition curve.

ACLNGCRNTNSQCA [24-11-00-N001, bicyclic peptide ligand, TATA scaffold, from CCR4 cell-based selection]
Raw Data (CCR4 [1]; 0.006 nM): 24609 | Raw Data (CCR4 [1]; 0.02 nM): 24123 | Raw Data (CCR4 [1]; 0.06 nM): 27885 | Raw Data (CCR4 [1]; 0.17 nM): 25757 | Raw Data (CCR4 [1]; 0.51 nM): 27976 | Raw Data (CCR4 [1]; 1.5 nM): 27602 | Raw Data (CCR4 [1]; 4.6 nM): 26096 | Raw Data (CCR4 [1]; 13.9 nM): 22941 | Raw Data (CCR4 [1]; 41.7 nM): 22581 | Raw Data (CCR4 [1]; 125 nM): 22195 | Raw Data (CCR4 [1]; 375 nM): 19528 | Raw Data (CCR4 [1]; high concentration, 0.001 uM): 9494 | Raw Data (CCR4 [1]; high concentration, 0.003 uM): 10549 | Raw Data (CCR4 [1]; high concentration, 0.008 uM): 10183 | Raw Data (CCR4 [1]; high concentration, 0.023 uM): 11338 | Raw Data (CCR4 [1]; high concentration, 0.1 uM): 11394 | Raw Data (CCR4 [1]; high concentration, 0.2 uM): 12202 | Raw Data (CCR4 [1]; high concentration, 0.6 uM): 11009 | Raw Data (CCR4 [1]; high concentration, 1.9 uM): 11006 | Raw Data (CCR4 [1]; high concentration, 5.6 uM): 10444 | Raw Data (CCR4 [1]; high concentration, 16.7 uM): 10968 | Raw Data (CCR4 [1]; high concentration, 50 uM): 9993 | Raw Data (CCR4 [2]; 1 nM CCL22, 0.001 uM): 139740 | Raw Data (CCR4 [2]; 1 nM CCL22, 0.003 uM): 146107 | Raw Data (CCR4 [2]; 1 nM CCL22, 0.008 uM): 158208 | Raw Data (CCR4 [2]; 1 nM CCL22, 0.023 uM): 155622 | Raw Data (CCR4 [2]; 1 nM CCL22, 0.1 uM): 132431 | Raw Data (CCR4 [2]; 1 nM CCL22, 0.2 uM): 136037 | Raw Data (CCR4 [2]; 1 nM CCL22, 0.6 uM): 141369 | Raw Data (CCR4 [2]; 1 nM CCL22, 1.9 uM): 129872 | Raw Data (CCR4 [2]; 1 nM CCL22, 5.6 uM): 110179 | Raw Data (CCR4 [2]; 1 nM CCL22, 16.7 uM): 106271 | Raw Data (CCR4 [2]; 1 nM CCL22, 50 uM): 85131 | IC80 (CCR4 [2]; 10 nM CCL22): 9.29 µM | Raw Data (CCR4 [2]; 10 nM CCL22, 0.001 uM): 164482 | Raw Data (CCR4 [2]; 10 nM CCL22, 0.003 uM): 157449 | Raw Data (CCR4 [2]; 10 nM CCL22, 0.008 uM): 146640 | Raw Data (CCR4 [2]; 10 nM CCL22, 0.023 uM): 154833 | Raw Data (CCR4 [2]; 10 nM CCL22, 0.1 uM): 154951 | Raw Data (CCR4 [2]; 10 nM CCL22, 0.2 uM): 151383 | Raw Data (CCR4 [2]; 10 nM CCL22, 0.6 uM): 163219 | Raw Data (CCR4 [2]; 10 nM CCL22, 1.9 uM): 153353 | Raw Data (CCR4 [2]; 10 nM CCL22, 5.6 uM): 145586 | Raw Data (CCR4 [2]; 10 nM CCL22, 16.7 uM): 127180 | Raw Data (CCR4 [2]; 10 nM CCL22, 50 uM): 119853

ACLSCARHGNQCA [24-12-00-N001, bicyclic peptide ligand, TATA scaffold, from CCR4 cell-based selection]
Raw Data (CCR4 [1]; 0.006 nM): 31416 | Raw Data (CCR4 [1]; 0.02 nM): 30201 | Raw Data (CCR4 [1]; 0.06 nM): 30311 | Raw Data (CCR4 [1]; 0.17 nM): 27668 | Raw Data (CCR4 [1]; 0.51 nM): 34202 | Raw Data (CCR4 [1]; 1.5 nM): 31584 | Raw Data (CCR4 [1]; 4.6 nM): 28872 | Raw Data (CCR4 [1]; 13.9 nM): 27830 | Raw Data (CCR4 [1]; 41.7 nM): 26640 | Raw Data (CCR4 [1]; 125 nM): 25288 | Raw Data (CCR4 [1]; 375 nM): 22486 | Raw Data (CCR4 [1]; high concentration, 0.001 uM): 10679 | Raw Data (CCR4 [1]; high concentration, 0.003 uM): 11299 | Raw Data (CCR4 [1]; high concentration, 0.008 uM): 11106 | Raw Data (CCR4 [1]; high concentration, 0.023 uM): 12540 | Raw Data (CCR4 [1]; high concentration, 0.1 uM): 13063 | Raw Data (CCR4 [1]; high concentration, 0.2 uM): 13783 | Raw Data (CCR4 [1]; high concentration, 0.6 uM): 13041 | Raw Data (CCR4 [1]; high concentration, 1.9 uM): 13661 | Raw Data (CCR4 [1]; high concentration, 5.6 uM): 12922 | Raw Data (CCR4 [1]; high concentration, 16.7 uM): 12407 | Raw Data (CCR4 [1]; high concentration, 50 uM): 12457 | Raw Data (CCR4 [2]; 1 nM CCL22, 0.001 uM): 205771 | Raw Data (CCR4 [2]; 1 nM CCL22, 0.003 uM): 230925 | Raw Data (CCR4 [2]; 1 nM CCL22, 0.008 uM): 216507 | Raw Data (CCR4 [2]; 1 nM CCL22, 0.023 uM): 200429 | Raw Data (CCR4 [2]; 1 nM CCL22, 0.1 uM): 190863 | Raw Data (CCR4 [2]; 1 nM CCL22, 0.2 uM): 196279 | Raw Data (CCR4 [2]; 1 nM CCL22, 0.6 uM): 195159 | Raw Data (CCR4 [2]; 1 nM CCL22, 1.9 uM): 184486 | Raw Data (CCR4 [2]; 1 nM CCL22, 5.6 uM): 225342 | Raw Data (CCR4 [2]; 1 nM CCL22, 16.7 uM): 123432 | Raw Data (CCR4 [2]; 1 nM CCL22, 50 uM): 101311 | Raw Data (CCR4 [2]; 10 nM CCL22, 0.001 uM): 162386 | Raw Data (CCR4 [2]; 10 nM CCL22, 0.003 uM): 192263 | Raw Data (CCR4 [2]; 10 nM CCL22, 0.008 uM): 193071 | Raw Data (CCR4 [2]; 10 nM CCL22, 0.023 uM): 176223 | Raw Data (CCR4 [2]; 10 nM CCL22, 0.1 uM): 168443 | Raw Data (CCR4 [2]; 10 nM CCL22, 0.2 uM): 197817 | Raw Data (CCR4 [2]; 10 nM CCL22, 0.6 uM): 207362 | Raw Data (CCR4 [2]; 10 nM CCL22, 1.9 uM): 197426 | Raw Data (CCR4 [2]; 10 nM CCL22, 5.6 uM): 164381 | Raw Data (CCR4 [2]; 10 nM CCL22, 16.7 uM): 163675 | Raw Data (CCR4 [2]; 10 nM CCL22, 50 uM): 134429

ACPLMSSVNCTAGCA [24-13-00-N001, bicyclic peptide ligand, TBMB scaffold, from CCR4 cell-based selection]
Raw Data (CCR4 [1]; 0.006 nM): 27634 | Raw Data (CCR4 [1]; 0.02 nM): 30705 | Raw Data (CCR4 [1]; 0.06 nM): 30335 | Raw Data (CCR4 [1]; 0.17 nM): 31512 | Raw Data (CCR4 [1]; 0.51 nM): 31217 | Raw Data (CCR4 [1]; 1.5 nM): 34513 | Raw Data (CCR4 [1]; 4.6 nM): 29431 | Raw Data (CCR4 [1]; 13.9 nM): 24436 | Raw Data (CCR4 [1]; 41.7 nM): 23071 | Raw Data (CCR4 [1]; 125 nM): 22524 | Raw Data (CCR4 [1]; 375 nM): 20081 | Raw Data (CCR4 [1]; high concentration, 0.001 uM): 11252 | Raw Data (CCR4 [1]; high concentration, 0.003 uM): 11640 | Raw Data (CCR4 [1]; high concentration, 0.008 uM): 12612 | Raw Data (CCR4 [1]; high concentration, 0.023 uM): 12684 | Raw Data (CCR4 [1]; high concentration, 0.1 uM): 13168 | Raw Data (CCR4 [1]; high concentration, 0.2 uM): 13560 | Raw Data (CCR4 [1]; high concentration, 0.6 uM): 12989 | Raw Data (CCR4 [1]; high concentration, 1.9 uM): 12391 | Raw Data (CCR4 [1]; high concentration, 5.6 uM): 12460 | Raw Data (CCR4 [1]; high concentration, 16.7 uM): 12506 | Raw Data (CCR4 [1]; high concentration, 50 uM): 11512 | Raw Data (CCR4 [2]; 1 nM CCL22, 0.001 uM): 229814 | Raw Data (CCR4 [2]; 1 nM CCL22, 0.003 uM): 230497 | Raw Data (CCR4 [2]; 1 nM CCL22, 0.008 uM): 210841 | Raw Data (CCR4 [2]; 1 nM CCL22, 0.023 uM): 219415 | Raw Data (CCR4 [2]; 1 nM CCL22, 0.1 uM): 218869 | Raw Data (CCR4 [2]; 1 nM CCL22, 0.2 uM): 228712 | Raw Data (CCR4 [2]; 1 nM CCL22, 0.6 uM): 229977 | Raw Data (CCR4 [2]; 1 nM CCL22, 1.9 uM): 190843 | Raw Data (CCR4 [2]; 1 nM CCL22, 5.6 uM): 200574 | Raw Data (CCR4 [2]; 1 nM CCL22, 16.7 uM): 156536 | Raw Data (CCR4 [2]; 1 nM CCL22, 50 uM): 114497 | Raw Data (CCR4 [2]; 10 nM CCL22, 0.001 uM): 195228 | Raw Data (CCR4 [2]; 10 nM CCL22, 0.003 uM): 200825 | Raw Data (CCR4 [2]; 10 nM CCL22, 0.008 uM): 201223 | Raw Data (CCR4 [2]; 10 nM CCL22, 0.023 uM): 183445 | Raw Data (CCR4 [2]; 10 nM CCL22, 0.1 uM): 170995 | Raw Data (CCR4 [2]; 10 nM CCL22, 0.2 uM): 195355 | Raw Data (CCR4 [2]; 10 nM CCL22, 0.6 uM): 181254 | Raw Data (CCR4 [2]; 10 nM CCL22, 1.9 uM): 194535 | Raw Data (CCR4 [2]; 10 nM CCL22, 5.6 uM): 180947 | Raw Data (CCR4 [2]; 10 nM CCL22, 16.7 uM): 179127 | Raw Data (CCR4 [2]; 10 nM CCL22, 50 uM): 133745
